Measured values from PMC7116795.

Target: RAD51 (UniProt Q06609 1-339)
Test: EMSA

Chain of RAD51 (Q06609 whole entry): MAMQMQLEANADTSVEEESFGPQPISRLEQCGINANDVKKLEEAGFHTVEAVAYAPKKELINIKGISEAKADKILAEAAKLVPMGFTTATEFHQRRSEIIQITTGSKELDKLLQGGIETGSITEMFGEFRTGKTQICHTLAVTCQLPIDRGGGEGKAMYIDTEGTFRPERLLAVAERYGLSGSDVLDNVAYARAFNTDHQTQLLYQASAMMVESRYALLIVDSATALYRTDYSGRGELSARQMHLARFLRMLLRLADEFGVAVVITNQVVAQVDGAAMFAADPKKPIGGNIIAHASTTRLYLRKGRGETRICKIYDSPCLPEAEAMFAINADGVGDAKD

B1: 41mer TERRA (ssRNA)
RNA: UUAGGGUUAGGGUUAGGGUUAGGGUUAGGGUUAGGGUUAGG
- binding signal: ~3 fold higher affinity than TelDNA (N2)
